# From a protein production outcome set (Wang et al. 2014)
# Experiment: label from the status in PepcDB records
# 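Also: failed if final PepcDB status was selected cloned or expressed and not failed if soluble or beyond.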
row,Sequence,protein production
1,MDELKLYTYIAVFSTFALYFAIAWWARAGSTSDFYVAGGGITPMQNGMAIGADWMSAASFISMAGLIAFLGYGGSVFLMGWTGGYVLLAMLLAPYMRKHGKFTVPEFIFDRYYSKTARIVAVACLIIASLTYIIGQMKGVGVAFSRFLEVDYGLGLGIGMFVVWVYAVLGGMKGITYTQIAQYVVMIFAYTIPAIFISLQLTGNPIPQLGLGSTLADGSGVYLLDKLDMVVTDLGFKEYTTSNLGGTLNMFAYTISLMIGTAGLPHVIMRFFTVPSVQAARQSAGYALVFIGLLYTVAPAVGAMARLNLMNTIEPTAGQNLVYDERPQWFKDWEKTGLLKFEDKNGDGKIQYTSNATDQTVTKINTMTGKEIVVVPNEMVKVDRDIMVLANPAIANLPNWVIALVAAGGLAAALSTAAGLLLAISSSISHDLMKGVLTPDLSEKNELLAGRVVMTIAILVSGYLGLHPPGFAAGTVALAFGLAASSIFPALMMGIFSKKMSGTAAISGMVAGIGVTMMYVFQHKGIMFIPGTSFLGDMGKDWFFGISPNAFGAVGAIVNFGVAFIVLQFTGPCPANIVAMVENMRAPGDCAAAHDH,failed
2,MDELRQKLQYSSFELEAVKAKANEETKLHQEEVKNLLHLLKLARQERDEAKDQLQKLLTIKTNSSITESNSHGSSPVDSFFEPVSSSEFSNFNMVPEPINQVKFKNRQQLVNRNLKKIDPVDALMDEIIKGKALPEKGKLLQTVMESGPLLQTLLVAGPLPRWRNPPPLQQSFRVPPISNSYGCLPATTTTSMLNFRGCSVPRIATGIEVATKRQRFH,failed
3,MDEMRPPPRSRTIYLLPNLFTTAGLFSGFYAIIAAANGQFVQAAMAVFVAAVMDGLDGRVARLTNTSSEFGVQYDSLADLVSFGMAPALVMYHWSLSALKYDSSVMGRVGWSAAFLYAACAALRLARFNTQVGVVDKRWFIGLASPAAAGLMMSFVWAFADDSLGFDGEQLRYVALAVTVVSALLMVSRIRFWSFKGGARGPRADRVPFLALAIATVVIALLVIDLARSLLVIGVLYALSGPLMWLWRRWRRVPELP,failed
4,MDEQAVSTSMKTVYIRIYTSVLYTSYTKPGNWSAVDRSAWSVSCSNVYADDDAKYGAHLAIDGEINTTWFTWGVANAGECWWNTVLDRPVTLTGFSVTKQSAYGSGYNLRSAEIKVRKEGETEWVTYPRVLTFRNFKGADPQYAAIEPPIPNVKEFRINCLTPDNYTGFAEINLYVKQLEHHHHHH,not failed
5,MDESKKISLGQFFTPTHIVKYMIGLMTKNKNASILEPSSGNGVFLDSLIQLGYTNLTSYEIDGDIISHPFVINSSFITSYDKPQYDSIIGNPPYVRWKNLSELQKKELKDNSIWKMYCNSLCDYFYIFIIKSILQLKVGGELIFICPDYFFSTKNAEGLRKFLINNGSFEKIILFNESKVFHGVSSSVVIFKYIKGKNIDNINIINIDSKSPIKSEDIE,failed
6,MDEVLLVKKLVEDAIVPTRGSKCAAGIDLYSNTNFIIQPHERFLVSTGVSVQIPHQCYGRIAPRSSLALKYGIDVGAGVIDEDYRGEIKVILFNHSNEIFNGRKGDRIAQLIIERISYCRISEVKELNTTDRGTNGFGSTGK,not failed
7,MDEYEDSQSPAPSYQYPKETLRKRQNSVQNSGGSVSSRFSRKSFKLDYRLEEDVTKSKKGKDGRFVNPWPTWKNISIPNVLRWLIMEKNHSGVPGSKEELDKELPVLKPYFVSDPEDAGVREAGLRVTWLGHATLMVEMDELIFLTDPMFSSRASPSQYMGPKRFRRPPCTISELPTIDAVLISHNHYDHLDYGSVLALNERFGSELRWFVPLGLLDWMQKCGCENVIELDWWEENCVPGHDKVTFVFTPSQHWCKRTLLDDNKVLWGSWSVLGPWSRFFFAGDTGYCPAFEEIGKRFGPFDLAAIPIGAYEPRWFMKYQHADPEDAVRIHIDLQTKRSVAIHWGTFALANEHYLEPPVKLNEALERYGLSCEDFFILKHGESRYLNTDDRAFEET,failed
8,MDFFAIDPIGLPHTSLIFYLSSLLIALLLVFLTFQAYRLKSHRYFFLFLQLSQVIGLYTWYVLRGFPLDEALPLYHCRIAMLAIFFLPDRNKFKQLFMVLGIGGTFLALLSPDLYPFRLWHVANVSFYFGHYALLVNGLIYLLRFYDASQLRLLSVVRYLATVNFLLLLVSLATKGNYGFVMDIPVIHTRHLLLNFVIVTSGLTFMVKITEYFYLKFGEAQQLALAFSKEK,failed
9,MDFFHHQDTARQRTGLLVMLFTLAVLAITGLVSVISIGIYFYFTGEPFTTQSIISYCLLSFVGVLLVVSISSFIRLSELNANGGRGVAESIGGKLISTDTSNAKHRQLLNVVEEMSIASGIPVPPVYVMAEEHGINAFAAGMSIDDAVIGVTQGALDAFSRDELQGVIAHEFSHILNGDMRLNTRLIGALFGITCIAHFGHLILDNSNSTRHVSRSSSDSNKGFAVIILIAIVCLVLGWLGTLFGNMIKAAISRQREFLADASAVQFTRNDQGIAGALKKIGSNVQGSTLNTKASDEMSHMMFGQSKLSGFSGLFATHPPLDERIRRIEPNWDGSYAQHSHAQNTAFDNEQVSGFAVGGGSPASQSASPSEQLSETGQQLISQLPPELVDIAREPYSARFIAFALIFDGSDIQREMIKSYVPLASQSTLLPWLDYDLPLHLRFPLLELALPALKSLSEAQKISLCKVLRELSETDNQYSLAEWCVINLLEKQLLASFGFIKQHKSLKQLEESVFWLLRELAWVSHSQADKAQRAYHCALAHLGFPEVKLEPANSNWHLSRAALELLLQLKPNDRRMFVKACRLAIESDGEITVAEGEIYRVIACFLEVPEPPLTISG,failed
10,MDFKIEKYLLKKAEELAFITIKHGGEFKLKSYEVPKGGLDVPIKNEVLVKGIKEKTAQDKLNSMSIADAMIYIIGIDSKFKNNAEYEKFLNALSKDIDLDLKSYMGYMSRKYFEIGEHTDSLIYIKAFITMYPDDLDAMYNYAIVCQEIAKQYQKDMDDKAMNAFLLEAMAKLEKVIDVDENFALGYYHLGYHYYNQGQYLKTKLTWEEALRLGLDADLVAEVQENLGKMDFKVQYEEGYTLVFQGKFKEGLEKLLPLEEEHMDWWNLLFMIALGYKGMGEIEQAKMYLEKILIIKPNQVDTIVELGLCEAYKNNLDKAIEYFEQAAKIKEDPEILCNLGMAYLNNGDIDDATYYIERAYELNPQDEITIVCLRELGINK,failed
11,MDFLLRTITMNERRALGFGVAAVLLWSTVATAFKITLEHFTPTQMLTIASAVSILALAGVAAYQKTLSQLIDTFLANPLYYILLGAINPLAYYLVLFKSYDLLPASQAQPLNYSWAITLTLMAAVFLGQKIRKQDWIACVLGYLGVIVIATKGDVLALEFDSPLGVGLALFSTLLWAGYWILNTKNKADPILGLLLGFLVALPVAIGLSIYEGAPWAQIPMSGWAAVSYVGLFEMGVTFVLWLSALRLTQNTARISNLIFASPFISLLLLANIIGEEIHPSTLIGLIMIVCGLLIQQFFGKKEELQTEQ,failed
12,MDFLPIFVIIASVMTAVSVYLIYLVKKGINGIGFLLVLYLSGSMLTMFISLSIALSNTALTTEILALTVNTAYMIVGLVSILLLGASRRKIESRKWYTVLLFSLLMTISEAVMGESFYSILTKSIGNPLIGTENYWFYAVMLAEMTFTLVYSFNSLTRQIRNYLLVTLPIMVVSPVILPTFSIWLSSLLMIVATIIIYDTLYRDRLKKTQETFTSLELMLIFTLMMAGIFTYYVTSSWYLYDISMILGMTWFIYRAIQGPSSIKGNYLRDSRWTFAFVLMTFVMEWFMGAVLDFASSYFSPGVEGFISSLPLGFVNPFSYFGAGALFDFLSIFGSVTGSVWFLVMMGLEMGTLAIFRIKEVRLRENRIRLALMVSAFAIYAVYIPSFSPLASKIPYIPYMWSMGLGTLGPVSTDYLLSGIVGTYVLSAVLSFLFGSRQICSVTCTAPTMYQGTFYNSLKVYNRTSSFARKTLSSKLRPWYKLIAIAVWSSLLAFAVISYFDQKGILNITIFGNDPTMFLYSFYFNFLWYVVFISIPFSGNYACVTQGWCSWGTFNQFFGGLGLFRLKVKDPELCVKCETKACSKACPVGNTDLPGNFIKKGEFKSSRCIGVGDCAEACPYDNIMFYDVRSWLKEKIKGDKM,failed
13,MDFLTEWIWFFLFVPLAALGGWIVGRRGGQRHGDTQVSRLSSTYFRGLNYLLNEQPDKAIELFLHIAELDKETFETQVALGHLFRRRGEVDRAIRLHQGLVQRGDLTDQQRVQALLALGEDYMKSGLLDRAETVFTELAQLDQRAPQALRHLIGIYQAERDWEKAIDNATRYEEVTGEPMGKLISQFECELADRYRGLGKTDDALQAIARAYQADGTSVRAGILEGRIEAERGHDEAAVRAFERAARHDPEYLPEIIPALMAAYRRVGDIAGARNFLSEMTEHYRGIAPVLALTQLMEAQDGVAPALAYLGRQLKDRPSVRGESALIDLTLAEGSDPVGTLQDLKHITDQLLVRNPSYRCTRCGFGAKTHHWQCPSCKEWGTVKPLLNYAVV,failed
